Earlier results on 1 substance are cited in article PMC5662943.

This data set deals with PCNA (Homo sapiens) (UniProt P12004).
Sequence of UniProt P12004 (P12004 whole entry): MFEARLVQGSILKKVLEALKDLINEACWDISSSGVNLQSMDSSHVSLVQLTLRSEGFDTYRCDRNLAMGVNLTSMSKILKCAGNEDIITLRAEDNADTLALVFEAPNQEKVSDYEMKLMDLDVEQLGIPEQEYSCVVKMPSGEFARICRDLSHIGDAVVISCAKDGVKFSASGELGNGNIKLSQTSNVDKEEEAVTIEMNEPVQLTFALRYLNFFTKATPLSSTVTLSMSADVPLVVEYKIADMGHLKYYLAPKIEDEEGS

One may read the Kd as a measure of binding affinity in units of concentration. RFC (from UniProt P35251): the Kd is 0.2 nM.
